# Test results reported in patent US20230212319A1, “NOVEL ANTIGEN BINDING DOMAINS AND SYNTHETIC ANTIGEN RECEPTORS INCORPORATING THE SAME” (University of Southern California, priority 2020, published 2023).
# Tested on: L363 cells
# Assay: JNG assay, co-culture with L363 cells
# Type: cell-based
# Settings: co-culture with L363
# Protocol: Cellular supernatant is collected and assayed for the induction of cytokines (e.g., IL2).
# JNG (Jurkat cells expressing EGFP under an NFAT promoter) were infected with lentiviral vectors encoding different single chain and multi-chain SARs by spinfection in the presence of 8 µg/ml of Polybrene® (Sigma, Catalog no. H9268). The Jurkat-NFAT-GFP cells are engineered in such a way that the IL-2 promoter, which carries NFAT binding sites, is cloned upstream of the GFP gene. These cells have been used to study signaling via TCR and CAR. The different SARs were stably expressed in Jurkat NFAT-GFP cells by lentiviral mediated gene transfer, followed by selection with puromycin or blasticidin. No drug selection was used in case the construct lacked an antibiotic resistance gene. The SAR-expressing Jurkat-NFAT-GFP cells were cocultured with the target cells at E:T ratio of approximately 1:2 for approximately 4 hours to 18 hours. When the interaction between SIRs and their target antigen results in activation of the NFAT pathway, GFP expression is induced. […] GFP expression was monitored by FACS analysis. The Jurkat-NFAT-GFP (parental) cells were used as control. The structure of different constructs can be determined based on their names. […] The sequence of the other constructs in the table can be similarly determined from their names and by referring to the different Tables of this disclosure that provide the names and SEQ ID NO of the different modules. Alternatively, the composition and modular architecture of the different SAR constructs can be determined from their sequences by bioinformatics tools, including using nucleic acid and amino acids homology searches. A SAR is considered positive in the assay in case the SAR expressing Jurkat-NFAT-GFP cells show greater % GFP positive cells when cultured with the target cell line as compared to parental Jurkat-NFAT-GFP cells. […] In general, the number +/-, +, 2+, 3+, 4+, 5+ refer to approximately 5%, 10%, 20%, 30%, 40% and 50% GFP positive cells. The % of GFP induction in the above assay is dependent not only the relative strength of the SAR but also, among other factors, on the relative level of expression of the SAR in the JNG cells and the relative level of expression of the target antigen in the target cell line. To control for the difference in gene transduction efficiency of the different SAR constructs, the experiment was conducted with JNG cells transduced with SAR constructs co-expressing a drug resistance gene (e.g., puromycin or PAC) followed by drug selection to generate a stable population of SAR-expressing cells. It is to be noted that the drug resistance gene (e.g., PAC) in the SAR constructs is optional and in vivo studies were conducted with SAR constructs lacking the PAC gene.
row,Molecule,NFAT-GFP ASSAY: L363
1,21994 (protein) MALPVTALLLPLALLLHAARPQVQLVESGGGLVQPGGSLRLSCAASGFTFTNHAMSWVRQAPGKGLELVSSISGNGRTTYYADSVKGRFTISRDISKNTLDLQMNSLRAEDTAVYYCAKDGGETLVDSRGQGTLVTVSSLEDLKNVFPPEVAVFEPSEAEISHTQKATLVCLATGFYPDHVELSWWVNGKEVHSGVCTDPQPLKEQPALNDSRYCLSSRLRVSATFWQNPRNHFRCQVQFYGLSENDEWTQDRAKPVTQIVSAEAWGRADCGFTSESYQQGVLSATILYEILLGKATLYAVLVSALVLMAMVKRKDSRGRAKRSGSGATNFSLLKQAGDVEENPGPTSMDWIWRILFLVGAATGAHSFEVQLLESGGGLVQPGGSLRLSCAASGFIFSSYAMSWVRQAPGKGQEWVSGVSGTGVNTYYADSVKGRFTISRDNSKNTLYLQMNSLRAEDTAVYYCASGKGWDSGSWYEDYRGQGTLVTVSSTRIQNPDPAVYQLRDSKSSDKSVCLFTDFDSQTNVSQSKDSDVYITDKCVLDMRSMDFKSNSAVAWSNKSDFACANAFNNSIIPEDTFFPSPESSCDVKLVEKSFETDTNLNFQNLSVIGFRILLLKVAGFNLLMTLRLWSSRAKRSGSGVKQTLNFDLLKLAGDVESNPGPSRGHMTEYKPTVRLATRDDVPRAVRTLAAAFADYPATRHTVDPDRHIERVTELQELFLTRVGLDIGKVWVADDGAAVAVWTTPESVEAGAVFAEIGPRMAELSGSRLAAQQQMEGLLAPHRPKEPAWFLATVGVSPDHQGKGLGSAVVLPGVEAAERAGVPAFLETSAPRNLPFYERLGFTVTADVEVPEGPRTWCMTRKPGA,"L363 (+) (refer to approximately 5%, 10%, 20%, 30%, 40% and 50% GFP positive cells)"
2,22009 (protein) MALPVTALLLPLALLLHAARPLEGKPIPNPLLGLDSTGSGEDLKNVFPPEVAVFEPSKAEIAHTQKATLVCLATGFYPDHVELSWWVNGKEVHSGVCTDPQPLKEQPALNDSRYCLSSRLRVSATFWQNPRNHFRCQVQFYGLSENDEWTQDRAKPVTQIVSAEAWGRADCGITSASYHQGVLSATILYEILLGKATLYAVLVSALVLMAMVKRKDSRGRAKRSGSGATNFSLLKQAGDVEENPGPTSTMDWIWRILFLVGAATGAHSQLQLQESGPGLVKPSETLSLTCTVSGGSVSSSSYYWGWIRQPPGKRLELIGSIYYGGSTYFNPSLKSRVTISVDTSKNQFSLKLSSVTAADTAVYYCAGGDTYGPVGQWPSDYRGQGTLVTVSSGGGGSGGGSFEVQLLESGGGLVQPGGSLRLSCAASGFIFSIYAMSWVRQAPGKGLEWVSGISGSGVNTYYADSVKGRFIISRDNSRNTVYLQMNSLRADDTAVYHCANGKGWDGNTWYEDYRGQGTLVTVSSTREQKLISEEDGSGIQNPDPAVYQLRDSKSSDKSVCLFTDFDSQTNVSQSKDSDVYITDKCVLDMRSMDFKSNSAVAWSNKSDFACANAFNNSIIPEDTFFPSSDVPCDVKLVEKSFETDTNLNFQNLSVIGFRILLLKVAGFNLLMTLRLWSSRAKRSGSGVKQTLNFDLLKLAGDVESNPGPSRGHMTEYKPTVRLATRDDVPRAVRTLAAAFADYPATRHTVDPDRHIERVTELQELFLTRVGLDIGKVWVADDGAAVAVWTTPESVEAGAVFAEIGPRMAELSGSRLAAQQQMEGLLAPHRPKEPAWFLATVGVSPDHQGKGLGSAVVLPGVEAAERAGVPAFLETSAPRNLPFYERLGFTVTADVEVPEGPRTWCMTRKPGA,"L363 (+/-) (refer to approximately 5%, 10%, 20%, 30%, 40% and 50% GFP positive cells)"
3,21998 (protein) MDWIWRILFLVGAATGAHSQLQLQESGPGLVKPSETLSLTCTVSGGSVSSSSYYWGWIRQPPGKRLELIGSIYYGGSTYFNPSLKTRVTISVDTSKNQFSLKLSSVTAADTAVYYCAGGDTYGPVGQWPSDYRGQGTLVTVSSLEDLKNVFPPEVAVFEPSEAEISHTQKATLVCLATGFYPDHVELSWWVNGKEVHSGVCTDPQPLKEQPALNDSRYCLSSRLRVSATFWQNPRNHFRCQVQFYGLSENDEWTQDRAKPVTQIVSAEAWGRADCGFTSESYQQGVLSATILYEILLGKATLYAVLVSALVLMAMVKRKDSRGRAKRSGSGATNFSLLKQAGDVEENPGPTSMDWIWRILFLVGAATGAHSFEQVQLVESGGGLVQPGGSLRLSCAASGFTFTNHAMSWVRQAPGKGLELVSSISGNGRTTYYADSVKGRFTISRDISKNTLDLQMNSLRAEDTAVYYCAKDGGETLVDSRGQGTLVTVSSTRIQNPDPAVYQLRDSKSSDKSVCLFTDFDSQTNVSQSKDSDVYITDKCVLDMRSMDFKSNSAVAWSNKSDFACANAFNNSIIPEDTFFPSPESSCDVKLVEKSFETDTNLNFQNLSVIGFRILLLKVAGFNLLMTLRLWSSRAKRSGSGVKQTLNFDLLKLAGDVESNPGPSRGHMTEYKPTVRLATRDDVPRAVRTLAAAFADYPATRHTVDPDRHIERVTELQELFLTRVGLDIGKVWVADDGAAVAVWTTPESVEAGAVFAEIGPRMAELSGSRLAAQQQMEGLLAPHRPKEPAWFLATVGVSPDHQGKGLGSAVVLPGVEAAERAGVPAFLETSAPRNLPFYERLGFTVTADVEVPEGPRTWCMTRKPGA,"L363 (+) (refer to approximately 5%, 10%, 20%, 30%, 40% and 50% GFP positive cells)"
4,21996 (protein) MALPVTALLLPLALLLHAARPQVQLVESGGGLVQPGGSLRLSCAASGFTFTNHAMSWVRQAPGKGLELVSSISGNGRTTYYADSVKGRFTISRDISKNTLDLQMNSLRAEDTAVYYCAKDGGETLVDSRGQGTLVTVSSLEDLKNVFPPEVAVFEPSEAEISHTQKATLVCLATGFYPDHVELSWWVNGKEVHSGVCTDPQPLKEQPALNDSRYCLSSRLRVSATFWQNPRNHFRCQVQFYGLSENDEWTQDRAKPVTQIVSAEAWGRADCGFTSESYQQGVLSATILYEILLGKATLYAVLVSALVLMAMVKRKDSRGRAKRSGSGATNFSLLKQAGDVEENPGPTSMDWIWRILFLVGAATGAHSFEVQLLESGGGLVQPGGSLRLSCAASGFIFSIYAMSWVRQAPGKGLEWVSGISGSGVNTYYAHSVKGRFIISRDNSRNTVYLQMNSLRADDTAVYHCANGKGWDGNTWYEDYRGQGTLVTVSSTRIQNPDPAVYQLRDSKSSDKSVCLFTDFDSQTNVSQSKDSDVYITDKCVLDMRSMDFKSNSAVAWSNKSDFACANAFNNSIIPEDTFFPSPESSCDVKLVEKSFETDTNLNFQNLSVIGFRILLLKVAGFNLLMTLRLWSSRAKRSGSGVKQTLNFDLLKLAGDVESNPGPSRGHMTEYKPTVRLATRDDVPRAVRTLAAAFADYPATRHTVDPDRHIERVTELQELFLTRVGLDIGKVWVADDGAAVAVWTTPESVEAGAVFAEIGPRMAELSGSRLAAQQQMEGLLAPHRPKEPAWFLATVGVSPDHQGKGLGSAVVLPGVEAAERAGVPAFLETSAPRNLPFYERLGFTVTADVEVPEGPRTWCMTRKPGA,"L363 (+) (refer to approximately 5%, 10%, 20%, 30%, 40% and 50% GFP positive cells)"
5,22014 (protein) MALPVTALLLPLALLLHAARPQVQLVESGGGLVQPGGSLRLSCAASGFTFTNHAMSWVRQAPGKGLELVSSISGNGRTTYYADSVKGRFTISRDISKNTLDLQMNSLRAEDTAVYYCAKDGGETLVDSRGQGTLVTVSSLEDLKNVFPPEVAVFEPSEAEISHTQKATLVCLATGFYPDHVELSWWVNGKEVHSGVCTDPQPLKEQPALNDSRYCLSSRLRVSATFWQNPRNHFRCQVQFYGLSENDEWTQDRAKPVTQIVSAEAWGRADCGFTSESYQQGVLSATILYEILLGKATLYAVLVSALVLMAMVKRKDSRGRAKRSGSGATNFSLLKQAGDVEENPGPTSMDWIWRILFLVGAATGAHSFEVQLLESGGGLVQPGGSLRLSCAASGFIFSIYAMSWVRQAPGKGLEWVSGISGSGVNTYYADSVKGRFIISRDNSRNTVYLQMNSLRADDTAVYHCANGKGWDGNTWYEDYRGQGTLVTVSSTRIQNPDPAVYQLRDSKSSDKSVCLFTDFDSQTNVSQSKDSDVYITDKCVLDMRSMDFKSNSAVAWSNKSDFACANAFNNSIIPEDTFFPSPESSCDVKLVEKSFETDTNLNFQNLSVIGFRILLLKVAGFNLLMTLRLWSSRAKRSGSGVKQTLNFDLLKLAGDVESNPGPSRGHMTEYKPTVRLATRDDVPRAVRTLAAAFADYPATRHTVDPDRHIERVTELQELFLTRVGLDIGKVWVADDGAAVAVWTTPESVEAGAVFAEIGPRMAELSGSRLAAQQQMEGLLAPHRPKEPAWFLATVGVSPDHQGKGLGSAVVLPGVEAAERAGVPAFLETSAPRNLPFYERLGFTVTADVEVPEGPRTWCMTRKPGA,"+/- (refer to approximately 5%, 10%, 20%, 30%, 40% and 50% GFP positive cells)"
